The data set is described as follows: soluble on expression in E. coli; label from the status in PepcDB or PDB records.
As to “MFEKGIWLNEPRQWSVTDQRLTVITDPETDFWQQTHYGFCRDTGHFLGVSVKGEFTAQVHVQGDFKTLYDQAGLMVRVDERNWVKTGVEVSDGALMLGSVLTWGQSDWATGVFDDSSSGLWLRVTVAKGVMRIQHSSDGLRWPLLRLAAFPLSERYAVGAMCCSPERGGLKVVFSHFEVMPALGKDLHDLTLEHHHHHH”, the “soluble on expression in E. coli” value is on record as “not soluble”.

As to “MFEWIKTFIAVYETKNFSTAAKQLYISQPTVSLQIKKLEQHFSIKLFYRNGKQSVIPTKEADFLYPKMLSIIESLTTSFAQAAEKENFKEDCIIASSNTVAIYLLPDIMESLVTAFPLINFSIQLMNSNEVVDMVQNNHAHIGLIEKPIETKNLHKEIVYEDQLVLAGDAASKFWLLREKNSGLRFFNELYLNEHSINLPIIELNNNEVLLQLLKNNIGQSIVSRLSISDEIPWQPIDQSFASRKIFIVQTDHHANTSFSEVYNRIVEKIRERQT”, the “soluble on expression in E. coli” value is “not soluble”.

As for “MFFIGIFGIENKQKEVKQLENIYCKTCSTRTMGTLIKSYEYFHIFFIPIFRWNEKYYVMCKRCNSIYEISKEKGKAIENGEINEVNLEDMTLIQEGQVYGKRAVKKVCPNCGKTVDGDYNYCPYCGSEILEHHHHHH”, the “soluble on expression in E. coli” value was “not soluble”.

Consider “MFGNSYGGYLANLCAKIAPWSIDFILDNSSFVNLFGNIFRLIGFGKEIDFTRYHGTYDDTLFKNIFLYLSDKTYWNNNKFSKNYFSNARKIIREPLNKEHLIIQSLYPNPKYILYHSIFDERSPFKNKENFVHILKELNFKVEFFAISQVDNKFIKNLNHGMGLSTKLFFKKHLLQILKEPLQDKICKKEVSYKCDELVYTFKEENHQIILNITN”, for which the “soluble on expression in E. coli” value is on record as “not soluble”.

On to “MFIESRELVMKHRIPVAKTERYWKGLEEGKVFKTVCKSCGKEHHPPRAECLCGGEVEWVEITGEGVVEAFTTVHTIPAGFEWHREPYTIAIARFGEVRVMGWAKEVRVGDVVRLKPGKDETGVWKVYFEVVLEHHHHHH”, for which the “soluble on expression in E. coli” value is “soluble”.

For the sequence “MFIGGAIISFLFLFGYMWKEAHSNRIRHVTLSFPHFPDNGPPLTIFFISDIHRRSVSCRMLETVKGKADLVVIGGDLAEKGVPAARVRENVRRLQTVAPVYFVWGNNDDEVDYDLQSLLEEERVYVLKNKAEVWEHGGVPIALIGVGDVSRKEADIARALEHVPPESFRILACHNPAIIARLEDEQHISLVLSGHTHGGQIRLFSFGLYEKGGLKWHGNTALFTSNGYGTTGVPLRLGAPAETHLIKIVPGKLATEKKCLSKTGKTMLEHHHHHH”, the “soluble on expression in E. coli” value is “not soluble”.

Turning to “MFIQTEATPNPATLKFLPGKVVLESGTVEFLNASQAQASPLAERLFTIPGVTGVYFGFDFITVTKDDAEWQHLKPAILGSIMEHFMSGRPIMGTAIAAEVSDEEGEFFEEGDETIVATIKELLDTRVRPAVAQDGGDITFRGFRDGTVFLNMKGACSGCPSSTATLKHGVQNLLRHFVPEVREVEAV”, the “soluble on expression in E. coli” value is recorded as “not soluble”.

For “MFKIGSVLKQIRQELNYHQIDLYSGIMSKSVYIKVEADSRPISVEELSKFSERLGVNFFEILNRAGMNTKSVNETGKEKLLISKIFTNPDLFDKNFQRIEPKRLTSLQYFSIYLGYISIAHHYNIEVPTFNKTITSDLKHLYDKRTTFFGIDCEIVSNLLNVLPYEEVSSIIKPMYPIVDSFGKDYDLTIQTVLKNALTISIMNRNLKEAQYYINQFEHLKTIKNISINGYYDLEINYLKQIYQFLTDKNIDSYLNAVNIINIFKIIGKEDIHRSLVEELTKISAKEKFTPPKEVTMYYENYVAIENNPIPEIKEQS”, the “soluble on expression in E. coli” value is reported as “soluble”.

Take “MFKPELLSPAGTLKNMRYAFAYGADAVYAGQPRYSLRVRNNDFKMENLATGIEEAHALGKKLYVVSNIAPHNAKLKTYIKDMEPVVAMKPDALIMSDPGLIMMVREAFPEQVVHLSVQANAINWASVKFWQTQGIKRVILSRELSLDEIEEIRQRCPDIELEVFVHGALCMAYSGRCLLSGYINKRDPNQGTCTNACRWKYDVHEAQQTDSGDIIATPNAVQIETPTTLGAGAPTEQIFLLQEANRPGEYMPAFEDEHGTYIMNSKDLRAIQHVERLAKMGIDSLKIEGRTKSFYYVARTAQLYRQAIDDAASGKSFDRSLMNQLEGLAHRGYTEGFLRRHVHDEYQNYDYGYSVSDTQQFVGELTGKRNLAGLAEIEVKNKFSVGDSVELMTPQGNISLTIEQLENRKAEAVEAGLGSGHSVYLPVPKEVDLNHGILLRNLPQGQDTRNPHEAG”: the “soluble on expression in E. coli” value is recorded as “not soluble”.

As to “MFNIMLVKFVVIFALILASCRVEADNTSVLPEGFVDAAQRSTHTNNWAVLVDASRFWFNYRHVANVLSIYRSVKRLGIPDSQIILMIADDMACNARNPRPGQVYNNANQHINVYGDDVEVDYRGYEVTVENFVRLLTGRTQNGTARSKKLLSDAGSNVLIYLTGHGGDGFLKFQDSEEITSQELADGIQQMWEKKRYNELFFMVDTCQAASLYEKFTSPNVLAVASSLVGEDSLSHHVDPSIGVYMIDRYTYYALEFLEKVQPFSKRTIGEFLQVCPKRVCISTVGVRKDLYPRDPHKVPITDFFGAIRPTRVSTDRINVTLANEELEHHHHHH”, the “soluble on expression in E. coli” value is reported as “not soluble”.

Consider “MFNVDGECVVFTSGGTESNNWVIEGTIRNAKKVSKLPHIITTNIEHPSILEPLKRREEDGEISVTYVSINPLTGFVTSQSILDALTSDTCLVTIMLANNDTGVLQPVSEIFQAIREKLKTNVPFLHSDVAQAAGKIPVNVRSLSADAVTVVGHKFYGPRSGALIFNPKSKRIPPMLLGGNQESGWRSGTENTPMIVGLGEAAKVYNEGFLNIESILRQNRDYFEELLLKRLRNSHIIHFIGSQRLPNTSSVAFLDYPSHGCDLLEKCQTFNASTGAACHKNECSPILKACGIPFAVASKTVRISFGRSTKIAEIETVVDELVQLCSPS”, for which the “soluble on expression in E. coli” value is “not soluble”.

In the case of “MFPSGHNEKWTRGYQRENSLLHHDDEFRSFQRRTDCPQHFYQQTNGYEHSLFGEKAGFHEASAQNLLMHLASQISPMEFAKLQLELLASQNKQRPHRGAGFGSYLMSPPATVSSSRSTVLCCNPAPPYASHCQSPAASDDFGHHFGSFDSMSAYNFHNNNQQQRREAHVSRDGKSFDQGNIYTAEDVHTVVKNHRNENNQRVVSNKVFVGGISHMMNRKIINKFFGQFGTVFVDWPVKQKPNSRGKSIAIGSYSYLFLVYSDEQSVIKLMSACHRNSQNDFFVSVPGFRDMIQIRPWFIYNGFYILEKARHNRIIDIHRTVFLGGLPRIVTAEEIAQMFSEFGVVLLVTIDIDQDYGYPKGAARVTFERDSAFNRALEKKFLKFDNIDSSKTMIEIKPYVMEDVGCDECGGLWFNPFLSIYDHLKCAKDDHQKEQKMAEIKNFNMWSSRSPFSLNSGDGHDDLITKMDAGFKKNCNLACTYSNRENEKNETEMGARKFLEMVKSFGLEKEKTVTVNGNEYPIGPDLWDKFLPAPKYDVGTEPVRMNPEAKLQQFLRMKRTNVYSNKSAYCKEAPCRQYYCPSCSNKLHSGPNQHTLLPAG”, the “soluble on expression in E. coli” value is on record as “soluble”.

Regarding “MFPVSSIGNDISSDLVRRKMNDLPESPTGNNLEALAPGIEKLKQTSIEMVTLLNTLQPGGKCIITGDFQKELAYLQNVILYNVSSLRLDFLGYNAQIIQRSDNTCELTINEPLKNQEISTGNININCPLKDIYNEIRRLNVIFSCGTGDIVDLSSLDLRNVDLDYYDFTDKHMANTILNPFKLNSTNFTNANMFQVNFVSSTQNATISWDYLLKITPVLISISDMYSEEKIKFVESCLNEPGDITEEQLKIMRFAIIKSIPRATLTDKLENELTKEIYKSSSKIINCLNRIKLTEMKEFSSEKIYDYIDIIIEDYENTKENAYLVVPQINYTMDLNIEDSSSEELLSDNTLEKDENSPDNGFEVGEYNTYEAYNSEKQYFTREDYTYDYDLLNAI”, the “soluble on expression in E. coli” value is reported as “not soluble”.

For “MFQFQFPLYNDIVEQARREAVEAGFEELRTPEDVDAAFRRPGTTLVLINSVCGCAGGIARPAAAHAVHYDKRPDHLVTVFAGQDKEATARAREYFVGEPPSSPSFALLKDGKLCAMLHRHDIEGHEPVAVVQKLQALFDEYCEEV”, the “soluble on expression in E. coli” value was “not soluble”.

Take “MFQISELANYRLCKRCSGRIFAYHYHGISNLERGEYLQFAIGCETGNPDFSFVDSKNCDICHGIFDRFDDIYDLVAKKVGDAQYSTFLVGSVFPQDTIRMEEDIQKKFGSSGESIKKEFNREFGKYFSARTGKEYSQDNPDLTILVNAEYLFVDVKIRSIYIYGKYRKFRRDMPQTRWIHRPNGDTVESVIGSVFTRYAGGTNYYLHGSGREDVDVRMLGNGREFVLEVENPRYREFELDPVVKEINTSGKGVEIFDVKFSSHDAVSEVKLEKHRKVYDALVVSDRPIDESRLLEACINLTGKNIYQRTPLRVAQRRSDLVRTRRIDQVDLVGVSANEAEILISAEAGTYIKELVNGDGGRTRPSLSEMYGSPLNVKELDVIKICRGEDLEHHHHHH”: the “soluble on expression in E. coli” value was “soluble”.

With “MFQNSPMMYDWWNDTTKPKHQQPTLNVLSPWGAYFNHIGNELLHLKIASSTVSSGCSSPQQYSSARSVGNSLSNGSVVSTTSSDGDVQLSNKENSNDKSVGDKNGNTTTNKTTVEPPPPEEPPVRVRASHREKLSDSEVLNQLREIVNPSNPLGKYEMKKQIGVGASGTVFVANVAGSTDVVAVKRMAFKTQPKKEMLLTEIKVMKQYRHPNLVNYIESYLVDADDLWVVMDYLEGGNLTDVVVKTELDEGQIAAVLQECLKALHFLHRHSIVHRDIKSDNVLLGMNGEVKLTDMGFCAQIQPGSKRDTVVGTPYWMSPEILNKKQYNYKVDIWSLGIMALEMIDGEPPYLRETPLKAIYLIAQNGKPEIKQRDRLSSEFNNFLDKCLVVDPDQRADTTELLAHPFLKKAKPLSSLIPYIRAVREK”, the “soluble on expression in E. coli” value is “not soluble”.

As for “MFRIGQGFDVHEFAEGRPLIIGGITIPHEKGLIGHSDADVLLHTIADACLGAIAAGDIGKHFPDTDPAFKDADSAVLLQKVWEFVREQGYELGNLDCTIIAQKPKMAPHIESMRKRISELLETSIDNINVKATTTEKLGFTGREEGIASQAVVLLQKK”, the “soluble on expression in E. coli” value is given as “not soluble”.

With “MFRSVLVEAAVRVESPLLAHRLEDALLHACKQRFCSRILPSLGVCLTALRICKLVDGAGKQLALEIWPVEVSGGGLRARVHVELLLWSPLPHELAFAQVRSCSRFGIRLSILNGFDYAFVPPGSMPEPCTYHEEQRCWSWRFNEDDFVIGEGDWVRVLIERVEYATDSAMATFDSPGTVGSGPPLHILPPPVPVGRTVMETDQANATPGAHPEHAPPLETEPPEFWETPSILPLRVWARLDAPGLGPIDWWS”, the “soluble on expression in E. coli” value was “not soluble”.

For the sequence “MFSALRHRTAALALGVCFILPVHASSPKPGDFANTQARHIATFFPGRMTGTPAEMLSADYIRQQFQQMGYRSDIRTFNSRYIYTARDNRKNWHNVTGSTVIAAHEGKAPQQIIIMAHLDTYAPQSDADADANLGGLTLQGMDDNAAGLGVMLELAERLKNTPTEYGIRFVATSGEEEGKLGAENLLKRMSDTEKKNTLLVINLDNLIVGDKLYFNSGVKTPEAVRKLTRDRALAIARSHGIAATTNPGLNKNYPKGTGCCNDAEIFDKAGIAVLSVEATNWNLGNKDGYQQRAKTAAFPAGNSWHDVRLDNQQHIDKALPGRIERRCRDVMRIMLPLVKELAKAS”, the “soluble on expression in E. coli” value is listed as “not soluble”.

On to “MFSGGRKVKWNHFGKKYALRFSDYEMEYADLYDALLKKVHEVRADFEGDLAFIDQYGRQVIVSSDKDVREAIQQSKNKLKLHTTLRDGHVIAAADMAEAARGRPARSQSVPPERSYNMYPQRSPSSMDSAPDTYRHHPQQMTRAMSPPPMSTTTGSTHSPPLRQIGETVKTTYSHSGSYGGLYPGGYKGYPYGGGYSNSILYGMPPHNGMLWRFLANPFPFGNAQTRSFIGPNKYHHFGGYNHMYSSGFGGPVW”, for which the “soluble on expression in E. coli” value is given as “not soluble”.

As to “MFSPSTTTLFRFVECTEDQHALEILEILNDAIINSTALYDYKPRSKESMAAWFATKRQNNFPIIGAVNEVGQLLGFASWGSFRAFPAYKYTVEHSVYIHKDYRGLGLSKHLMNELIKRAVESEVHVMVGCIDATNVASIQLHQKLGFIHSGTIQQAGFKFGRWLDAAFYQLTLDTPLHPQDD”, the “soluble on expression in E. coli” value is on record as “soluble”.
